In article PMC3170924 (Journal of molecular biology, 2011):

B1: PG peptide, K2WQ10(D-Pro)GQ10AK2 (polyglutamine peptide interrupted by the beta-turn template D-ProGly) (peptide)
peptide: KKWQQQQQQQQQQPGQQQQQQQQQQAKK
HELM: PEPTIDE1{[ac].K.K.W.Q.Q.Q.Q.Q.Q.Q.Q.Q.Q.[dP].G.Q.Q.Q.Q.Q.Q.Q.Q.Q.Q.A.K.K.[am]}$$$$V2.0
SMILES: CC(=O)N[C@@H](CCCCN)C(=O)N[C@@H](CCCCN)C(=O)N[C@@H](Cc1c[nH]c2ccccc12)C(=O)N[C@@H](CCC(N)=O)C(=O)N[C@@H](CCC(N)=O)C(=O)N[C@@H](CCC(N)=O)C(=O)N[C@@H](CCC(N)=O)C(=O)N[C@@H](CCC(N)=O)C(=O)N[C@@H](CCC(N)=O)C(=O)N[C@@H](CCC(N)=O)C(=O)N[C@@H](CCC(N)=O)C(=O)N[C@@H](CCC(N)=O)C(=O)N[C@@H](CCC(N)=O)C(=O)N1CCC[C@@H]1C(=O)NCC(=O)N[C@@H](CCC(N)=O)C(=O)N[C@@H](CCC(N)=O)C(=O)N[C@@H](CCC(N)=O)C(=O)N[C@@H](CCC(N)=O)C(=O)N[C@@H](CCC(N)=O)C(=O)N[C@@H](CCC(N)=O)C(=O)N[C@@H](CCC(N)=O)C(=O)N[C@@H](CCC(N)=O)C(=O)N[C@@H](CCC(N)=O)C(=O)N[C@@H](CCC(N)=O)C(=O)N[C@@H](C)C(=O)N[C@@H](CCCCN)C(=O)N[C@@H](CCCCN)C(N)=O

Target: the molecule itself
Test: sedimentation assay

| Protein | Kn k+^2 (nucleation-elongation fit of sedimentation data) [M^−2s^−2] |
| --- | --- |
| Ac-KKWQQQQQQQQQQAAQQQQQQQQQQAKK-NH2 [AA peptide, K2WQ10AAQ10AK2 (polyglutamine peptide interrupted by AlaAla)] | 0.000197 |
| B1 | 0.127 |
| Ac-KKWQQQQQQQQQQQQQQQQQQQQAKK-NH2 [Q20 peptide, K2WQ20AK2 (uninterrupted polyglutamine control)] | 0.000235 |
